US20230080534A1, “SEMG2 ANTIBODY AND USE THEREOF” (SHANGHAI BIOTROY BIOTECHNIQUE CO., LTD., priority 2020, published 2023)
“Also recorded” adds a separate entry of the source.

T1: binding between SEMG2 and CD27 (Homo sapiens, UniProt Q02383)
T1 sequence (Q02383 24-582): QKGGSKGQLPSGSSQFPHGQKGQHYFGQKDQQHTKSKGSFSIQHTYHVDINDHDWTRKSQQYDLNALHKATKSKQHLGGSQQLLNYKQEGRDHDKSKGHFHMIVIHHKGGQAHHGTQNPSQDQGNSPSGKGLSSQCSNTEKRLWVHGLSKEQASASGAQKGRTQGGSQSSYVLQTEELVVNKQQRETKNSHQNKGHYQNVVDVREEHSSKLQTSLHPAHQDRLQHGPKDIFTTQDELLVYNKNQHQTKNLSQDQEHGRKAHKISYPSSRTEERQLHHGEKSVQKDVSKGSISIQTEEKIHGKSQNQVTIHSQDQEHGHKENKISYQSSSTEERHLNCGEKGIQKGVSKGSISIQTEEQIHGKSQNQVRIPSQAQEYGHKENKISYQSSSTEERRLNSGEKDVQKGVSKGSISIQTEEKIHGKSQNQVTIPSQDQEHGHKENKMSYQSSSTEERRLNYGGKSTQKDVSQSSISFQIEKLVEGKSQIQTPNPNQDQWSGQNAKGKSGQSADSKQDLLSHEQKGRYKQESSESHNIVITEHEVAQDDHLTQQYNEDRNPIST


How the values were obtained:
[1] = target: T1, binding between SEMG2 and CD27; assay: Antibody blocking ELISA of SEMG2 binding to CD27-Fc; details: for effect on the binding between SEMG2 and CD27: antibody 10 μg/mL; for blocking of binding between SEMG2 and CD27 with increasing antibody concentration: wide range of concentration
Source text: Because SEMG2 (497-509) sequence fragment is the key epitope of SEMG2 binding to CD27, and has a relatively short sequence, so SEMG2 (497-509) was used as an immunogen to prepare antibodies, which is theoretically easier to obtain functional antibody molecules with the function of blocking the binding between SEMG2 and CD27 than using full-length SEMG2 to prepare antibodies. For direct comparison, the differences in effective concentration of producing antibody by the two methods were verified using ELISA in the examples. Antibodies produced with SEMG2 (497-509) as immunogen and antibodies produced with full-length SEMG2 were added into the enzyme-linked immunosorbent assay (ELISA) reaction system at different concentrations (10^-2, 10^-1, 10^0, 10^1, 10^2, 10^3, 10^4 μg/mL), and the ELISA binding values were measured. The specific steps of enzyme-linked immunosorbent assay are as follows: (1) Dissolve SEMG2 protein antigen with 50 mM carbonate coating buffer (pH 9.6) to make the antigen concentration 10 μg/mL, and add into 96-well ELISA plate (purchased from Corning) at 100 μL/well, place at 4° C. overnight. (2) After discarding the coating solution on the next day, wash with PBST for three times, add 150 μL of 1% BSA to each well, and block for 2 hours at 37° C. […] (4) After washing for 5 times with PBST, add 100 of diluted HRP-labeled anti-human Fe secondary antibody, and incubate at 37° C. for 1 hour. (5) After washing with PBST for 5 times, 20 min after developing with chromogenic agent, the A450 absorption value was read using the microplate reader.
The SEMG2 (497-509) sequence was used to synthesize a polypeptide and coupled to a VLP carrier for immunization; HEK293 cells were used to express the full-length SEMG2 protein, and the purity was tested to reach 92%, and the binding activity of SEMG2 protein to CD27 was verified by ELISA. The protein and polypeptide antigens were used to immunize 10 mice respectively, and multiple immunizations were performed to enhance the effect: (1) The first immunization, 50 μg/mice of antigen, multiple subcutaneous injections together with Freund's complete adjuvant, with an interval of 3 weeks; (2) the second immunization; the same dosage and route as above, with incomplete Freund's adjuvant, and with an interval of 3 weeks; (3) the third immunization, the same dosage as above, without adjuvant, intraperitoneal injection with an interval of 3 weeks; (4) the booster immunization, the dose is 50 μg, intraperitoneal injection. 3 days after the last injection, blood was collected to measure its titer and the immune effect, and mice with higher titers were selected for hybridoma fusion screening. After subcloning, the binding of the monoclonal antibodies to the target antigens was detected by ELISA, and the function of different monoclonal antibodies in blocking the binding between SEMG2 and CD27 was measured by ELISA.
First, SEMG2(497-509) epitope-specific antibodies (for example, MM02, MM05) were compared with other epitope-specific antibodies (for example, HPA042767) for their function in blocking binding between SEMG2 and CD27 at different concentration ranges. […] The blocking function of different antibodies (irrelative mouse IgG, MM02, MM05, HPA042767) on binding between SEMG2 and CD27 was analyzed by the ELISA experiment as described in Example 11.
Further, the effects of different antibodies on the binding between SEMG2 and CD27 were compared under the condition of the same antibody concentration. In the ELISA, the same concentration (10 μg/mL) of antibody was used, and the strength of the binding between SEMG2 and CD27 was measured. […]

SEMG2(497-509) fragment = target: T2, SEMG2(497-509) fragment (Homo sapiens, UniProt Q02383); assay: ELISA binding of antibodies to SEMG2(497-509) epitope
T2 construct: SEMG2(497-509) fragment and SEMG2(563-574) fragment were immobilized on the ELISA plate; made in house; host or cells: chemical synthesis
Protocol: Specifically, SEMG2 full-length protein (1-582), SEMG2(354-403) fragment, SEMG2(442-453) fragment, SEMG2(497-509) fragment and SEMG2(563-574) fragment were immobilized on the ELISA plate, and the same concentration of antibodies (MM02, MM05, MM07, MM08, MM13, MM14, HPA042767 and HPA042835) were added. Anti-mouse or anti-rabbit secondary antibodies were then used to detect the corresponding bound antibodies. MM02, MM05, MM07, MM08, MM13, and MM14 all bound to SEMG2(497509) epitope, HPA042767 bound to SEMG2 (354-403) epitope, and HPA042835 bound to […], while none of the antibodies bound to SEMG2 (442-453) control fragment.
Specifically, the preparation of polypeptide antigens and the screening of human natural antibody library were firstly performed. The SEMG2(497-509) polypeptide was synthesized and coupled to BSA and KLH, respectively, and screened in a fully human phage display antibody library. ELISA was used to select clones that bind to antigenic epitopes for preliminary screening. Different unique sequences were obtained after sequencing single colonies, sorted according to affinity sorting, and full-length antibodies were constructed from antigen-binding fragments (Fab) with relatively high affinity. The binding ability and blocking function tests were performed after purification, that is, the effect of the antibody on binding between SEMG2 and CD27 was determined by the ELISA experiment.

effect on the binding between SEMG2 and CD27 [1] | blocking of binding between SEMG2 and CD27 with increasing antibody concentration [1] | Molecule | binding to SEMG2(497-509) epitope (SEMG2(497-509) fragment)
significantly reduced the binding | gradually decreased | MM02: mouse monoclonal antibody against SEMG2(497-509), mIgG2b kappa, VH SEQ ID NO:35, VL SEQ ID NO:42 (antibody, V domains shown, UNSURE (1)..(115) VH; UNSURE (1)..(109) VL) VH: QIQLVQSGPEVKKPGETVRISCKASGYTLTTAGIQWVQKMPGKGLKWIGWINTHSGVPEYAEDFKGRFAFFLETSASTAYLQISNLKNEDTATYFCARLGLLGYWGQGTTLTVSS VL: DILLTQSPAILSVSPGERVSFSCRASQSIGTTIHWYQQRTNGSPRLLIKYASESISGIPSRFSGSGSGTDFTLSINSVESEDIADYYCQQSNSWPWTFGGGTKLEIKRA | able to hind to SEMG2(497-509); also recorded: bound
significantly reduced the binding | gradually decreased | MM05: mouse monoclonal antibody against SEMG2(497-509), mIgG1 kappa, VH SEQ ID NO:36, VL SEQ ID NO:43 (antibody, V domains shown, UNSURE (1)..(120) VH; UNSURE (1)..(115) VL) VH: QVQLQQPGAELVRPGASVKLSCEASGYTFTSYWMNWVKQRPGQGLEWIGMIDPSDSETHYNQMFKDKATLTVDKSSSTAYMQLSSLTSEDSAVYYCARYLGGKEGSFDYWGQGTTLTVSS VL: DIVMSQSPSSLAVSAGEKVTMSCKSSQSLLNSRTRKNYLAWYQQKPGQSPKLLIYWASTRESGVPDRFTGSGSGTDFTLTISSVQAEDLAVYYCKQSYSLPWTFGGGTKLEIKRA | able to hind to SEMG2(497-509); also recorded: bound
